According to PMC11440250 (iScience, 2024):

Target: the molecule itself
Test: cross-linking

B1: Flag-PKM2 K207R (enzyme)
chain: not shown
binding result: binds
